Five substances from paper PMC7262448 can be followed below.

One assay has as its target human plasma proteins. The assay is described as follows: EScalate equilibrium shift assay; binding of peptide to the proteins of human or mouse plasma; percentage of peptide unbound, determined in duplicate.
For a further assay, the target named is mouse plasma proteins. The description is as above.
The target in assay [1] is human SNAP-GLP-1R (human) (UniProt P43220).
A further assay deals with mouse GLP-1R (mouse) (UniProt O35659).
Chain of mouse GLP-1R (mouse) (O35659 22-463): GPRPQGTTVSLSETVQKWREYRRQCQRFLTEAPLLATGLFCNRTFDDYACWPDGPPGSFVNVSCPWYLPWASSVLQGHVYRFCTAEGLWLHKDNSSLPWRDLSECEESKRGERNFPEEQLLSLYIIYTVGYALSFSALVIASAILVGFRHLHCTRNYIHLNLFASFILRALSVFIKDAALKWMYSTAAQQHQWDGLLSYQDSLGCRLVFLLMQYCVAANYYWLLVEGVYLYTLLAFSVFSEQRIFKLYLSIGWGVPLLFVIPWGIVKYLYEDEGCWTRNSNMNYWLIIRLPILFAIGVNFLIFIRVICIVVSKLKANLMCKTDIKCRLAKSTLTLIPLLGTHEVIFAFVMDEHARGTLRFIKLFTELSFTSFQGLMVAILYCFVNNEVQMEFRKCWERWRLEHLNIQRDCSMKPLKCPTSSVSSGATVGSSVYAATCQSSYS
The next assay deals with rat GLP-1R (rat) (UniProt P32301).
Chain of rat GLP-1R (rat) (P32301 22-463): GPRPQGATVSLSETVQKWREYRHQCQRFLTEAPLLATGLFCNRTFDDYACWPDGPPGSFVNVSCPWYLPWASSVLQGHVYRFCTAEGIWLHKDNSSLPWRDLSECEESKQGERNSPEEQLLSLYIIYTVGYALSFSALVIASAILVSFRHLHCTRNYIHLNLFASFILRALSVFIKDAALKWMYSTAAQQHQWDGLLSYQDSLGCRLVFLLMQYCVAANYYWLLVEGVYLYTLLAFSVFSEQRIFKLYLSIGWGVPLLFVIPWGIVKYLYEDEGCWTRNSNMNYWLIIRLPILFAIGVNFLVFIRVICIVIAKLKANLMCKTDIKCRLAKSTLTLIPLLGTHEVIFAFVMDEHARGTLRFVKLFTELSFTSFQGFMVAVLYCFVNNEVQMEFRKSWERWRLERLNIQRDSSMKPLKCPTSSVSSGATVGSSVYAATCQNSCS
Assay [2] addresses human SNAP-GLP-1R (human) (UniProt P43220). In words: FRET or BRET. For orientation: In BRET a luciferase serves as donor, and the signal depends on an acceptor being close.

Chain of human SNAP-GLP-1R (human) (P43220 24-463): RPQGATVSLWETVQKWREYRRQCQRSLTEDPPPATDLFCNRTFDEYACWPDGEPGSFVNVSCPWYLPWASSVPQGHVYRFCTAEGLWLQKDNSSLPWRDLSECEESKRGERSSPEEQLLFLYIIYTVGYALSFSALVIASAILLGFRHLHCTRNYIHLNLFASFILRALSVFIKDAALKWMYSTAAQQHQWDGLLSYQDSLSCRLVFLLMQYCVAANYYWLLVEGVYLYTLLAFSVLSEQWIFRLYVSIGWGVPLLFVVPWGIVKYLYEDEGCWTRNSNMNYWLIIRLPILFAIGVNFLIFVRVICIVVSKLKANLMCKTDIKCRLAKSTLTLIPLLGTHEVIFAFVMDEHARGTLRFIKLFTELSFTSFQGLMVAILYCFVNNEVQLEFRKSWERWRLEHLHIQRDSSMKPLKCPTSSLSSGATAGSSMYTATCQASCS

“[G^40,K^41.C16 diacid]exendin-4 (from UniProt P26349 48-87) (peptide)”: the results for the unbound fraction (fu) in the assay with human plasma proteins and with mouse plasma proteins were 2.3% and 2.6%, respectively.
F^1-exendin-4 (peptide): in assay [1], the cAMP (1% FBS), HEK293-SNAP-GLP-1R cells, Emax was found to be 83 % max and the cAMP (1% FBS), HEK293-SNAP-GLP-1R cells, pEC50 is 9 pEC50 (M). In the assay with mouse GLP-1R (mouse), the cAMP, MIN6B1 cells (with IBMX), Emax was found to be 97 % max and the cAMP, MIN6B1 cells (with IBMX), pEC50 was 9.2 pEC50 (M). Besides, in the assay with rat GLP-1R (rat), the cAMP, INS-1 832/3 cells (with IBMX), Emax worked out at 97 % max and the cAMP, INS-1 832/3 cells (with IBMX), pEC50 was 8.4 pEC50 (M). In addition, the pKd in assay [2] is 7.8 pKd (M).
For the substance D^3-exendin-4 (peptide), in assay [1], the cAMP (1% FBS), HEK293-SNAP-GLP-1R cells, Emax worked out at 96 % max and the cAMP (1% FBS), HEK293-SNAP-GLP-1R cells, pEC50 is 10.6 pEC50 (M). Besides, in the assay with mouse GLP-1R (mouse), the cAMP, MIN6B1 cells (with IBMX), Emax worked out at 101 % max and the cAMP, MIN6B1 cells (with IBMX), pEC50 is 11 pEC50 (M). Further, in the assay with rat GLP-1R (rat), the cAMP, INS-1 832/3 cells (with IBMX), Emax turned out to be 100 % max and the cAMP, INS-1 832/3 cells (with IBMX), pEC50 is 9 pEC50 (M). Moreover, the pKd in assay [2] is 9.1 pKd (M).
As to “[D^3,G^40,K^41.C16 diacid]exendin-4 (peptide)”, in assay [1], the cAMP (1% FBS), HEK293-SNAP-GLP-1R cells, Emax came to 97 % max and the cAMP (1% FBS), HEK293-SNAP-GLP-1R cells, pEC50 is 10.4 pEC50 (M). Besides, in the assay with mouse GLP-1R (mouse), the cAMP, MIN6B1 cells (with IBMX), Emax came out at 97 % max and the cAMP, MIN6B1 cells (with IBMX), pEC50 is 10.8 pEC50 (M). In the assay with rat GLP-1R (rat), the cAMP, INS-1 832/3 cells (with IBMX), Emax was determined as 101 % max and the cAMP, INS-1 832/3 cells (with IBMX), pEC50 was 8.7 pEC50 (M). The pKd in assay [2] is 8.9 pKd (M). Also, the unbound fraction (fu) with human plasma proteins is 2.2%. Moreover, the unbound fraction (fu) with mouse plasma proteins came out at 2.1%.
As for “[F^1,G^40,K^41.C16 diacid]exendin-4 (peptide)”, in assay [1], the cAMP (1% FBS), HEK293-SNAP-GLP-1R cells, Emax was 49 % max and the cAMP (1% FBS), HEK293-SNAP-GLP-1R cells, pEC50 was 8.2 pEC50 (M). In addition, in the assay with mouse GLP-1R (mouse), the cAMP, MIN6B1 cells (with IBMX), Emax is 98 % max and the cAMP, MIN6B1 cells (with IBMX), pEC50 is 7.9 pEC50 (M). In the assay with rat GLP-1R (rat), the cAMP, INS-1 832/3 cells (with IBMX), Emax stood at 41 % max and the cAMP, INS-1 832/3 cells (with IBMX), pEC50 was 7.5 pEC50 (M). Further, the pKd in assay [2] is 8.3 pKd (M). Further, the unbound fraction (fu) with human plasma proteins is 2.1%. For the same substance, the unbound fraction (fu) with mouse plasma proteins worked out at 2.4%.
